The values below come from US20090130123A1 (published 2009).

Changes are numbered by the printed parent chain.

The target in assay [1] is T1, WNV E protein DIII displayed on yeast (Saccharomyces cerevisiae; West Nile …, UniProt Q9Q6P4 586-705).
T1 construct: domain: DIII; also called WNV DIII
T1 sequence: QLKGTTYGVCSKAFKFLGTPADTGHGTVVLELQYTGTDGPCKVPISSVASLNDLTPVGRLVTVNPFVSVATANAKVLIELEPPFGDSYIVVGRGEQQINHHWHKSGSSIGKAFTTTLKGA
Nature of the assay: flow cytometry on yeast displaying WNV E DIII (pYD1); % positive cells.

Assay [2] deals with T2, Recombinant WNV-E protein ectodomain (West Nile virus, UniProt Q9Q6P4 291-700).
T2 construct: extracellular domain; also called rWNV-E; WNE
T2 sequence (looked up): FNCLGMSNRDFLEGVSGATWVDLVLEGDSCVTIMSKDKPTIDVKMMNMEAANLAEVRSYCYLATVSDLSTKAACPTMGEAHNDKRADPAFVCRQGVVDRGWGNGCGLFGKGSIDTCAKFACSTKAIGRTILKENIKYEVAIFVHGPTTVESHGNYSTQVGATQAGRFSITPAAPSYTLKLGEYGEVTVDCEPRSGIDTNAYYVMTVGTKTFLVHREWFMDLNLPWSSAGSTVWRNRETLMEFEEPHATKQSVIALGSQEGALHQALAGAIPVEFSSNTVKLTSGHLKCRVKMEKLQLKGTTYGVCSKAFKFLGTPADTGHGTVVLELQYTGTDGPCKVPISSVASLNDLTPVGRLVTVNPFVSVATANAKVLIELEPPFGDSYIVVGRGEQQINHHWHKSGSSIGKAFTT
The assay can be described thus: SPR (Biacore 3000); scFv on NTA chip via His tag, rWNV-E in solution. A general note: In SPR one partner is held on a chip, and binding of the other changes the refractive index at the surface.

Assay [3] deals with West Nile virus E protein on WNV strain 2741 virions (West Nile virus, UniProt Q9Q6P4 291-791). The assay can be described thus: cell-based or functional assay.
Chain of West Nile virus E protein on WNV strain 2741 virions (Q9Q6P4 291-791 limits assumed): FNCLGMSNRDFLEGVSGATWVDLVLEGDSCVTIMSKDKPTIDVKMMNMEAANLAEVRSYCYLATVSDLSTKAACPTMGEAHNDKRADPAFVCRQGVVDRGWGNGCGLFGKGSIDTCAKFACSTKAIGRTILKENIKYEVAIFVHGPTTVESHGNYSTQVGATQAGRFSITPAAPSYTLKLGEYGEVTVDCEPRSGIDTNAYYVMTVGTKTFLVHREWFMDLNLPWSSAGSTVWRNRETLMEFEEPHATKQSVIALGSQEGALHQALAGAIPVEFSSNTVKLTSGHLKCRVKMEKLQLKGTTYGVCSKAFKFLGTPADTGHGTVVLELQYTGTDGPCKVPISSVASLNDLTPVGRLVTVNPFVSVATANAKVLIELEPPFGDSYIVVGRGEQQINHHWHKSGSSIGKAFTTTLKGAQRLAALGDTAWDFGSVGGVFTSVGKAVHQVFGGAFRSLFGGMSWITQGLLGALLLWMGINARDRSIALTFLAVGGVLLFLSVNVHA
In assay [4] the target is T2, Recombinant WNV-E protein ectodomain. Nature of the assay: SPR (Biacore); scFv-Fc captured by goat anti-human IgG on CM4 chip, rWNV-E in solution.
Assay [5] has the same target.

B1: 10 (Fc fusion)
scFv-Fc chain: QVQLVQSGAEVKKPGSSVKVSCKASGYTFSGYSTHWLRQVPGQGLEWIGWDNPSSGDTTYAENFRGRVTLTRDTSITTDYLEVRGLRSDDTAVYYCARGGDDYSFDHWGQGTLVTVSSSGGGSGGGGSGGGGSQTVVTQEPSFSVSPGGTITLTCGLSSGSVFTSYYPSWYQQTPGQAPRTLIYSTNTRSSGVPDRFSGSILGNKAALTITGAQADDESDYYCVLYMGSGIGVFGTGTKVTVLG
notes: also called scFv-Fc 10; 10 scFv-Fc
Turning to B1, in assay [1], the binding result is given as “no binding”.

B2: scFv 11 (scFv)
scFv: MAQVQLVQSGAEVKKPGASVKVSCKASGYTFSGYSTHWLRQVPGQGLEWIGWDNPSSGDTTYAENFRGRVTLTRDTSITTDYLEVRGLRSDDTAVYYCARGGDDYSFDHWGQGTLVTVSSGGGGSGGGGSGGGGSSSELTQDPAVSVALGQTVRITCRGDSLRSYYASWYQQKPGQAPVLVIYGENNRPSGIPDRFSGSSSGDTASLTITGAQAEDEADYYCNSRDSSDHLLLFGGGTKLTVLGQPKATPSAAAEQKLISEEDL
notes: also called 11 scFv; antibody 11
For orientation: Kd means the equilibrium constant for the complex coming apart. As usually defined, the koff is the rate constant with which the complex falls apart. In general, kon refers to a measure of how fast the partners come together. On to B2, for which, in assay [2], the Ka came out at 2.03e+08 M⁻¹, the Kd turned out to be 4.92 nM, the koff was found to be 0.00161 s⁻¹ and the kon came to 326000 M⁻¹ s⁻¹.

B3: 79 scFv-Fc (Fc fusion)
chain: QVQLVQSGAEVKKPGSSVKVSCKASGGTFSSYAISWVRQAPGQGLEWMGWMNSNTGDTGYAQKFQGRVTMTRNTSTSTAYMELSSLRSEDTAVYYCAKISNYHYYAMDVWGQGTLVTVSSGGGGSGGGGSGGGGSLPVLTQPPSASGTSGQTVTISCSGGSSNIGSHLVTWYQQFPGTAPKVLIHTNDQRPSGVPDRISGSKSGTSASLAISGLQSDDEGDYYCAAWDDSLNGYVFGTGTKVTVLG
notes: also called scFv-Fc 79; antibody 79 (scFv-Fc)
For the molecule B3, the binding result in assay [1] was “no binding”. In addition, the “PRNT80 titer (µg/ml), plaque reduction neutralization of WNV on Vero cells” value in assay [3] stood at 5 µg/mL. For the same molecule, in assay [4], the Ka was 7.34e+10 M⁻¹, the Kd is 0.0136 nM, the koff is 3.58e-07 s⁻¹ and the kon is 26200 M⁻¹ s⁻¹.

B4: scFv 79 (scFv)
scFv: MAQVQLVQSGAEVKKPGSSVKVSCKASGGTFSSYAISWVRQAPGQGLEWMGWMNSNTGDTGYAQKFQGRVTMTRNTSTSTAYMELSSLRSEDTAVYYCAKISNYHYYAMDVWGQGTLVTVSSGGGGSGGGGSGGGGSLPVLTQPPSASGTSGQTVTISCSGGSSNIGSHLVTWYQQFPGTAPKVLIHTNDQRPSGVPDRISGSKSGTSASLAISGLQSDDEGDYYCAAWDDSLNGYVFGTGTKVTVLGQPKATPSAAAEQKLISEEDL
notes: also called 79 scFv; antibody 79
Broadly, the EC50 (read off the curve) is the concentration at which the effect is half-maximal. For B4, in assay [2], the Ka is 1.87e+08 M⁻¹, the Kd was 5.35 nM, the koff is 0.00067 s⁻¹ and the kon amounted to 125000 M⁻¹ s⁻¹. Also, the “EC50 (read off the curve)” value in assay [5] is roughly 0.4 µg/mL.

B5: scFv 69 (scFv, not shown: small tags and cut ends)
scFv: MAQVQLVQSGAEVKEPGSSVKVSCKASGGTFSNYPISWVRQAPGQGLEWMGGIIPITNSPGYAQKFQGRVTISADESTGTVYMELSSLRSEDTAIYYCAKDPNRYESGVLHYWHGLDVWGQGTTVTVSSGGGGSGGGGSGGGGSLPVLTQPPSASGTPGQTVTLSCSGSSSNIGSNTVNWYQQLPGTAPKLLIYSNNQRPSGVPDRFSASKSGTSASLAITGLQAEDEADYFCAAWDDSLVYVFGTGTKVTVLGQPKAAPSAAAEQKLISEEDL
notes: also called 69 scFv; antibody 69
With B5, in assay [2], the Ka was 1.69e+07 M⁻¹ and the Kd amounted to 59.2 nM.

B6: scFv 85 (scFv, not shown: small tags and cut ends)
scFv: MAQVQLVQSGAEVKKPGASVKVSCKASGYTFSGYSTHWLRQVPGQGLEWIGWDNPSSGDTTYAENFRGRVTLTRDTSITTDYLEVRGLRSDDTAVYYCARGGDDYSFDHWGQGTLVTVSSGGGGSGGGGSGGGGSSSELTQDPAVSVALGQTVTITCQGGGLRNYYASWYQQKPGQAPVLLVYGRDNRPSGIPDRFSGSSSGNTASLTITGAQAEDEADYYCNSRDSSGNHLVFGGGTKLTVLGQPKATPSAAAEQKLISEEDL
notes: also called 85 scFv; antibody 85
For the molecule B6, in assay [2], the Ka is 7.45e+08 M⁻¹, the dissociation constant Kd worked out at 1.34 nM, the koff amounted to 0.00673 s⁻¹ and the kon was 5.01e+06 M⁻¹ s⁻¹.

B7: scFv-Fc 15 (Fc fusion)
chain: QVQLVQSGAEVKKPGASVKVSCKASGYTFSGYSTHWLRQVPGQGLEWIGWDNPSSGDTTYAENFRGRVTLTRDTSITTDYLEVRGLRSDDTAVYYCARGGDDYSFDHWGQGTLVTVSSGGGGSGGGGSGGGGSQSALTQPASVSGSPGQSITISCTGTNSDVGIYNLVSWYQQHPGKAPKLMIYDVSNRPSGVSSRFSGSNSGNTATLTISGLQAEDEADYYCSAHAGDNTQFGGGTKLTVLS
notes: also called 15 scFv-Fc
For B7, the binding result in assay [1] is given as “no binding”. Further, the “PRNT80 titer (µg/ml), plaque reduction neutralization of WNV on Vero cells” value in assay [3] worked out at 1.25 µg/mL.

B8: scFv 15 (scFv)
scFv: MAQVQLVQSGAEVKKPGASVKVSCKASGYTFSGYSTHWLRQVPGQGLEWIGWDNPSSGDTTYAENFRGRVTLTRDTSITTDYLEVRGLRSDDTAVYYCARGGDDYSFDHWGQGTLVTVSSGGGGSGGGGSGGGGSQSALTQPASVSGSPGQSITISCTGTNSDVGIYNLVSWYQQHPGKAPKLMIYDVSNRPSGVSSRFSGSNSGNTATLTISGLQAEDEADYYCSAHAGDNTQFGGGTKLTVLSQPKAAPSAAAEQKLISEEDL
notes: also called 15 scFv; antibody 15
With B8, in assay [2], the Ka was 1.04e+08 M⁻¹, the Kd stood at 9.65 nM, the koff is 0.00128 s⁻¹ and the kon turned out to be 133000 M⁻¹ s⁻¹. Also, the “EC50 (read off the curve)” value in assay [5] is roughly 0.3 µg/mL.

B9: scFv-Fc 11 (Fc fusion)
chain: QVQLVQSGAEVKKPGASVKVSCKASGYTFSGYSTHWLRQVPGQGLEWIGWDNPSSGDTTYAENFRGRVTLTRDTSITTDYLEVRGLRSDDTAVYYCARGGDDYSFDHWGQGTLVTVSSGGGGSGGGGSGGGGSSSELTQDPAVSVALGQTVRITCRGDSLRSYYASWYQQKPGQAPVLVIYGENNRPSGIPDRFSGSSSGDTASLTITGAQAEDEADYYCNSRDSSDHLLLFGGGTKL
notes: also called 11 scFv-Fc
In the case of B9, the binding result in assay [1] is listed as “no binding”. Moreover, in assay [3], the “PRNT80 titer (µg/ml), plaque reduction neutralization of WNV on Vero cells” value worked out at 1.25 µg/mL.

B10: scFv 84 (scFv)
scFv: MAQVQLVQSGAEVKKPGASVKVSCKASGYTFSGYSTHWLRQVPGQGLEWIGWDNPSSGDTTYAENFRGRVTLTRDTSITTDYLEVRGLRSDDTAVYYCARGGDDYSFDHWGQGTLVTVSSGGGGSGGGGSGGGGSQSVLTQPPSVSVAPGKTARIPCGGNNSGTKSVHWYQQKPGQAPVLVIYDDRVRPSGIPERFSGSNSGDTATLTISRVAAGDEADYYCQVSDGSGDPPTWVFGGGTRLTVLGQPKAAPSAAAEQKLISEEDL
notes: also called 84 scFv; antibody 84
On to B10, for which, in assay [2], the Ka stood at 2.65e+07 M⁻¹, the Kd was 37.8 nM, the koff was determined as 0.00685 s⁻¹ and the on-rate constant (kon) came out at 181000 M⁻¹ s⁻¹.

B11: scFv-Fc 71 (Fc fusion)
chain: QVQLVQSGAEVKKPGASVKVSCKASGYTFSGYSTHWLRQVPGQGLEWIGWDNPSSGDTTYAENFRGRVTLTRDTSITTDYLEVRGLRSDDTAVYYCARGGDDYSFDHWGQGTLVTVSSGGGGSGGGGSGGGGSSYELTQPPSASGTTGQRVTISCSGSSSNIGSNTVNWYQQLPGTAPKLLIYSNNQRPSGVPDRLSGSKSGTSASLAISGLQSEDEADYYCAAWDARLTGPLFGGGTKLSVLR
notes: also called 71 scFv-Fc
On to B11, for which, in assay [1], the binding result is “no binding”. The “PRNT80 titer (µg/ml), plaque reduction neutralization of WNV on Vero cells” value in assay [3] was determined as 2.5 µg/mL.

B12: scFv-Fc 73 (Fc fusion)
chain: B11 chain with T147P, L196F
notes: also called 73 scFv-Fc
For B12, the binding result in assay [1] is reported as “no binding”. In addition, in assay [3], the “PRNT80 titer (µg/ml), plaque reduction neutralization of WNV on Vero cells” value stood at 1.25 µg/mL.

B13: 84 scFv-Fc (Fc fusion)
chain: QVQLVQSGAEVKKPGASVKVSCKASGYTFSGYSTHWLRQVPGQGLEWIGWDNPSSGDTTYAENFRGRVTLTRDTSITTDYLEVRGLRSDDTAVYYCARGGDDYSFDHWGQGTLVTVSSGGGGSGGGGSGGGGSQSVLTQPPSVSVAPGKTARIPCGGNNSGTKSVHWYQQKPGQAPVLVIYDDRVRPSGIPERFSGSNSGDTATLTISRVAAGDEADYYCQVSDGSGDPPTWVFGGGTRLTVL
notes: also called scFv-Fc 84
As for B13, the binding result in assay [1] is given as “no binding”. In addition, the “PRNT80 titer (µg/ml), plaque reduction neutralization of WNV on Vero cells” value in assay [3] was 12.5 µg/mL.

B14: scFv 71 (scFv)
scFv: MAQVQLVQSGAEVKKPGASVKVSCKASGYTFSGYSTHWLRQVPGQGLEWIGWDNPSSGDTTYAENFRGRVTLTRDTSITTDYLEVRGLRSDDTAVYYCARGGDDYSFDHWGQGTLVTVSSGGGGSGGGGSGGGGSSYELTQPPSASGTTGQRVTISCSGSSSNIGSNTVNWYQQLPGTAPKLLIYSNNQRPSGVPDRLSGSKSGTSASLAISGLQSEDEADYYCAAWDARLTGPLFGGGTKLSVLRQPKAAPSAAAEQKLISEEDL
notes: also called 71 scFv; antibody 71
Turning to B14, in assay [2], the Ka is 3.64e+07 M⁻¹, the Kd was 27.5 nM, the koff is 0.00258 s⁻¹ and the kon was 93900 M⁻¹ s⁻¹.

B15: scFv 73 (scFv)
scFv: B14 scFv with T149P, L198F
notes: also called 73 scFv; antibody 73
In the case of B15, in assay [2], the Ka is 2.3e+08 M⁻¹, the Kd worked out at 4.35 nM, the koff turned out to be 0.00225 s⁻¹ and the kon was found to be 517000 M⁻¹ s⁻¹.
